Two substances from paper PMC12342048 can be followed below.

The target of this assay is mammalian cell-expressed human COMP (Cartilage Oligomeric Matrix Protein) (human) (UniProt P49747).
mammalian cell-expressed human COMP (Cartilage Oligomeric Matrix Protein) (human), sequence (P49747 21-757): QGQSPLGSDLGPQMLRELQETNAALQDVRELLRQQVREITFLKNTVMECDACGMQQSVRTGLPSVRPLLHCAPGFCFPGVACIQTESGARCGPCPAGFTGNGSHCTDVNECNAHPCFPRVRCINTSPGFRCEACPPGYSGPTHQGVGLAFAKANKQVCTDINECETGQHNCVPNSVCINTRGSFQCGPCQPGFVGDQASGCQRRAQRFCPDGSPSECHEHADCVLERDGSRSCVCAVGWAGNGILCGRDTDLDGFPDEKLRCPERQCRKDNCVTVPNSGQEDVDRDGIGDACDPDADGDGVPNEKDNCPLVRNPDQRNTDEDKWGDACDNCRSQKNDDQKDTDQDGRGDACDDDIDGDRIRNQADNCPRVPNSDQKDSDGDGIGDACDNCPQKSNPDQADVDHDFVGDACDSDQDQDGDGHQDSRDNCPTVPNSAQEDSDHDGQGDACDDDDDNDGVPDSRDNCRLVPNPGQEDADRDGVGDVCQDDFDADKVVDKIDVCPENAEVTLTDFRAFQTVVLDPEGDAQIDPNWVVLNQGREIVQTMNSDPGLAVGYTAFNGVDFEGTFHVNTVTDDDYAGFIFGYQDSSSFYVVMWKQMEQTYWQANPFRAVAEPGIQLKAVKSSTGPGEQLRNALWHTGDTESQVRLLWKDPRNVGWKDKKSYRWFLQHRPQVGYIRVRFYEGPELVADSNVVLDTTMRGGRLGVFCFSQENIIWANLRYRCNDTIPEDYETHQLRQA

ADAMTS4 variant β3-β4; β9-β10 (both loops replaced with those of ADAMTS13), sequence (O75173 52-837, change not shown): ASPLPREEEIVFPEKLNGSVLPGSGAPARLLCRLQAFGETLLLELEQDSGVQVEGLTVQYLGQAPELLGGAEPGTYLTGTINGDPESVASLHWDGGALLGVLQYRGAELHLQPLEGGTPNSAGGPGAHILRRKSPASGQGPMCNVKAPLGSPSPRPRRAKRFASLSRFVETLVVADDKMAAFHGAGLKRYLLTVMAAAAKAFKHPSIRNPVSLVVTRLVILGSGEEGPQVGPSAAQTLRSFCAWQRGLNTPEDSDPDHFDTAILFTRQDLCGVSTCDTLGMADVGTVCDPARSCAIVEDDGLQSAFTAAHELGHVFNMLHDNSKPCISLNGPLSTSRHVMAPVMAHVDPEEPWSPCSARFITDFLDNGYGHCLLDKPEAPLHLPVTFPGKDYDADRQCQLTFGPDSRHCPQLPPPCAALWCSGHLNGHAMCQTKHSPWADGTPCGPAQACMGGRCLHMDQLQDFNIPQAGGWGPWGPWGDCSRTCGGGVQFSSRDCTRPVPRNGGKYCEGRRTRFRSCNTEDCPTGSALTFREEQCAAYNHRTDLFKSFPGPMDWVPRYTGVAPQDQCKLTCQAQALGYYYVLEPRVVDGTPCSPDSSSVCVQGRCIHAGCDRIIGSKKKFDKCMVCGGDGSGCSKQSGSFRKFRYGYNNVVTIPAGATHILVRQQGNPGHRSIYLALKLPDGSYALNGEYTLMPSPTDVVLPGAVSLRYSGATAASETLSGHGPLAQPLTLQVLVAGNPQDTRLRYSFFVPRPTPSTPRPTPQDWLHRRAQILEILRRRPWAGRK
ADAMTS4 variant β1-β2 (residues 693–698 swapped with those of ADAMTS13), sequence (O75173 52-837, change not shown): as above

“ADAMTS4 variant β1-β2 (residues 693–698 swapped with those of ADAMTS13) (from UniProt O75173 52-837) (enzyme)”: the reduction in COMPase activity at the S77-V78 bond compared to WT ADAMTS4 (hCOMP 520 nM, enzyme 12 nM, 2 h, 37 °C; densitometry of anti-QQS77 immunoblot, WT set as 100 %) was found to be 25 % reduction.

In turn, “ADAMTS4 variant β3-β4; β9-β10 (both loops replaced with those of ADAMTS13) (from UniProt O75173 52-837) (enzyme)” showed a reduction in COMPase activity at the S77-V78 bond compared to WT ADAMTS4 (hCOMP 520 nM, enzyme 12 nM, 2 h, 37 °C; densitometry of anti-QQS77 immunoblot, WT set as 100 %) of 20 % reduction.
